# Test results published in paper doi:10.1101/2025.02.16.638571 (bioRxiv, 2025).
# T1: NiVM G head domain protein (residues 176-602) (Nipah virus, Malaysia strain (NiVM), UniProt Q9IH62 176-602)
# T1 sequence: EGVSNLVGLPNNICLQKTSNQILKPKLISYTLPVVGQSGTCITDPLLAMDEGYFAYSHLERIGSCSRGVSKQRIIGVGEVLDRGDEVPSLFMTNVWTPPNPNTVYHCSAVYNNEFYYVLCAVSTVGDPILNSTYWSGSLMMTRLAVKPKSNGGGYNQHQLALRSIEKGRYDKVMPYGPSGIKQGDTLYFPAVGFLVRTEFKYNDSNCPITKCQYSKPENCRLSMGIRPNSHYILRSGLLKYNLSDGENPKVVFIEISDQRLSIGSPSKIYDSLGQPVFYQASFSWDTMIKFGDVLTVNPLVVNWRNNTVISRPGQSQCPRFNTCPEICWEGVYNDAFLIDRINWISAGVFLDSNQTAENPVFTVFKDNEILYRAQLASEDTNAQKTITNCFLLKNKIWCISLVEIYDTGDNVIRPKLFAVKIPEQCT
# B1: mAb S1E2 (antibody, V domains shown)
# VH: QMQLQESGPGLVKPSQSLSLTCSVTGYSITSGYYWNWIRQFSGNKLEWMGYINHDGSKNYNPSLKNRISITRDTSKNQFFLKLNSVTTEDTATYYCARDYGSYYYPMDYWGQGTSVTVSS
# VL: EIVLTQSPPIMSASPGEKVTITCSASSSVTFMHWFQQKPGTSPKLWIFSTSNLASGVPARFSGSGSGTSYSLTISRMEAEDAATYYCQQRSSYPFTFGSGTKLEIK
# B2: S1E2 Fab (Fab, V domains shown)
# VH: B1 VH
# VL: B1 VL
# B3: mAb S2B10 (antibody, V domains shown)
# VH: QMQLQESGPGLVKPSQSLSLTCTVTGYSITSDYAWNWIRQFPRNKLEWMGFITYSGSTSYNPSLKSRISLTRDTSKNQFFLQLSSVTTEDTATYYCARSGANWDWFAYWGQGTLVTVSA
# VL: DIQMTQSPASLAVSLGQRATISCRASESVDNYGNSFMHWYQQKPGQPPKLLIYRASKLESGIPARFSGSGSRTDFTLTINPVEADDVATYHCQQSNEDPWTFGGGTKLEIK
# B4: S2B10 Fab (Fab, V domains shown)
# VH: B3 VH
# VL: B3 VL
# B5: LN1F9 Fab (Fab, V domains shown)
# VH: EVKLVESGGGLVKPGGSLKLSCAASGFSFRNYAMSWVRQSPEKRLEWVAEVSSGGGYTYYPDTVTGRFTISRDNAKNILYLEMSSLRSEDTAMYYCTRDPDSSGYLAWFAYWGQGTLVTVSA
# VL: DILLTQSPASLSASVGETVTITCRASENINSYLAWYQQKQGKSPQLLVYNAKTLAEGVPSRFSGSGSDTQFSLKINTLQPEDFGTYYCQHHSGTPYTFGGGTKLEIK
# B6: mAb LN1F9 (antibody, V domains shown)
# VH: B5 VH
# VL: B5 VL
# B7: LN3D3 Fab (Fab, V domains shown)
# VH: EVKLEESGPELVKPGASVKMSCKASGYTFTNYVMHWVKQKPGQGLEWIGYVNPYNDGTQYNEKFRDKATLTSDKSSSTVYMELNSLTSEDSAVYYCTRGDYPYWVFEVWGAGTTVTVSS
# VL: EIQMTQSPATLSVTPGDSVSLSCRASQSISNNLHWYQQKSHESPRLLIKYASQSISGIPSRFSGSGSGTDFTLSINNLETEDFGMYFCQHSDSWPFTFGSGTKLEIK
# B8: mAb LN3D3 (antibody, V domains shown)
# VH: B7 VH
# VL: B7 VL
# B9: human ephrin-B2 (residues 27-167) (receptor)
# chain: SIVLEPIYWNSSNSKFLPGQGLVLYPQIGDKLDIICPKVDSKTVGQYEYYKVYMVDKDQADRCTIKKENTPLLNCAKPDQDIKFTIKFQEFSPNLWGLEFQKNKDYYIISTSNGSLEGLDNQEGGVCQTRAMKILMKVGQD
# Assays:
# [1] = molecular target: LayV G head domain (residues 176-625) (Langya virus, GenBank UUV47206.1, UniProt A0AAX3C924); assay: ELISA
# [2] = molecular target: MojV G head domain (residues 176-625) (Mojiang virus, GenBank YP_009094095.1, UniProt W8TIR7); assay: ELISA
# [3] = molecular target: NiVM G ectodomain (residues 96-602) (Nipah virus, Malaysia strain, …, UniProt Q9IH62); assay: ELISA
# [4] = molecular target: T2, NiVM G head domain protein (residues 176-602) (Nipah virus, Malaysia strain (NiVM), UniProt Q9IH62); assay: BLI
# [5] = molecular target: T2, NiVM G head domain protein (residues …); assay: cryo-EM structure
# [6] = molecular target: deglycosylated NiVM G head domain without the His-tag (residues 176-602) (Nipah virus, Malaysia strain, …, UniProt Q9IH62); assay: crystal structure
# [7] = molecular target: T1, NiVM G head domain protein (residues …); assay: BLI
Binder,binding result [1],binding result [2],binding result [3],binding result [4],binding result [5],also measured
B1,no binding (tested: 1 μg/mL),no binding (tested: 1 μg/mL),binds,binds,,
B2,,,,,binds,
B3,no binding (tested: 1 μg/mL),no binding (tested: 1 μg/mL),binds,binds,,
B4,,,,,binds,
B5,,,,,,binding result [6]: binds
B6,no binding (tested: 1 μg/mL),no binding (tested: 1 μg/mL),binds,binds,,
B7,,,,,binds,
B8,no binding (tested: 1 μg/mL),no binding (tested: 1 μg/mL),binds,binds,,
B9,,,,,,binding result [7]: binds
